Changes are numbered by the printed parent chain.
Assays:
Fc-0447 1-60 (human) = Fc-0447 1-60 (human) (UniProt Q9UBP8); test: ELISA
[1] = target: T1, Fc-fused truncated mutant of KAAG1 spanning amino acids 1-35 (human); test: ELISA
T1 sequence: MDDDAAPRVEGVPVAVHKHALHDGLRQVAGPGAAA

B1: A9 (Fab, V domains shown)
VH: QVQVQQPGAELVRPGASVTLSCKASGYIFTDYEVHWVRQRPVHGLEWIGVIDPETGDTAYNQKFKGKATLTADKSSSTAYMELSSLTAEDSAVYYCIGYADYWGQGTTLTVSS
VL: DIVMTQSPSSLAMSLGQKVTMSCKSSQSLLNSNNQLNYLAWYQQKPGQSPKLLVYFASTRKSGVPDRFIGSGSGTDFTLTITSVQAEDLADYFCQQHFNTPLTFGAGTKLELK
- OD450 (Fc-0447 1-60 (human)): 2.29

B2: Fab of well C2 (Omniclonal AL0003Z1 plate) (Fab, V domains shown)
VH: DVQLQESGPDLVKPSQSLSLTCTVTGFSITSGYGWHWIRQFPGNKLEWMGYISFNGDSNYNPSLKSRISITRDTSKNQFFLQLNSVTSEDTATYYCASSYDGLFAYWGQGPLVTVSA
VL: DIQMTQSPSSMYASLGERVTLTCKASQDIHNYLNWFQQKPGKSPKTLIHRANRLVAGVPSRFSGSGSGQDYSLTISSLEYEDLGIYYCLQYDAFPLTFGAGTKLELK
- OD450 (Fc-0447 1-60 (human)): 0.48

B3: Fab of well D1 (Omniclonal AL0003Z1 plate) (Fab, V domains shown)
VH: B2 VH with D1E, N44D, S58Y, N84S, S88T, P111T
VL: B2 VL with Q3K, L21I, N31T, K45E, H49Y, A56D, L83M, A93E
- OD450 (Fc-0447 1-60 (human)): 0.27

B4: 3C4 mouse anti-KAAG1 Fab (Fab, V domains shown)
VH: B2 VH with D1E, S53N, F54Y, N55D, D57H, S58N, N59D, R72Q, S88T, P111T
VL: DIVMSQSPSSMYASLGERVTITCKASQDIHNFLNWFQQKPGKSPKTLIFRANRLVDGVPSRFSGSGSGQDYSLTISSLEFEDLGIYSCLQYDEIPLTFGAGTKLELR
- OD450 (Fc-0447 1-60 (human)): 0.57

B5: 3D3 mouse anti-KAAG1 Fab (Fab, V domains shown)
VH: EVQLQQSVAELVRPGASVTLSCKASGYIFTDYEIHWVKQTPVHGLEWIGVIDPETGNTAFNQKFKGKATLTADISSSTAYMELSSLTSEDSAVYYCMGYSDYWGQGTTLTVSS
VL: DIVMTQSPSSLAVSIGQKVTMNCKSSQSLLNSNFQKNFLAWYQQKPGQSPKLLIYFASTRESSIPDRFIGSGSGTDFTLTISSVQAEDLADYFCQQHYSTPLTFGAGTKLELK
- OD450 (Fc-0447 1-60 (human)): 1.33

B6: G12 (Fab, V domains shown)
VH: B5 VH with L20V, V42A
VL: DIVMTQSPKFMSTSVGDRVSITCKASQDVGTAVAWYQQKPGQSPELLIYWTSTRHTGVPDRFSGSGSGTDFTLTISSVQAEDLADYFCQQHYSIPLTFGAGTKLELR
- OD450 (Fc-0447 1-60 (human)): 1.52

B7: Fab of well E10 (Omniclonal AL0003Z1 plate) (Fab, V domains shown)
VH: EVQLQQSGPELVKPGASVKISCKASGDTFTDYYMNWVKQSHGKSLEWIGDINPNYGGITYNQKFKGKATLTVDTSSSTAYMELRGLTSEDSAVYYCQAYYRNSDYWGQGTTLTVSS
VL: DIVMTQAAPSVPVTPGESVSISCRSSKSLLHSNGNTYLYWFLQRPGQSPQLLIYRMSNLASGVPDRFSGSGSGTAFTLRISRVEAEDVGVYYCMQHLEYPYTFGGGTKLEIK
- OD450 [1]: 0.33
